Laboratory results as given in patent US20200181277A1.

Experiments:
[1] = target: purified human C1q (human) (UniProt P02745); test: cell-based or functional assay
[2] = target: human CD40 (human) (UniProt P25942); test: cell-based or functional assay
Sequence of human CD40 (human) (P25942 21-277): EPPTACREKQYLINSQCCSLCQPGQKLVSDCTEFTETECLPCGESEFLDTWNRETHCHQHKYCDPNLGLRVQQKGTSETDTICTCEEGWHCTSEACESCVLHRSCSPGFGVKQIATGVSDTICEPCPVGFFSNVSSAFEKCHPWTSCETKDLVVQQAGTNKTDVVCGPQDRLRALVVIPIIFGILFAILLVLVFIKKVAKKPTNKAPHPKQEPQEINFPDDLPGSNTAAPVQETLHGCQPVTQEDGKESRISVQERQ

IgG1-b12 (antibody)
C1q EC90 (µg/mL), viability assay on WIL2-S SF cells [1]: > 2.5 µg/mL

purified, recombinant CD40 ligand (R&D systems, Cat No. 6420-CL-025/CF) (from UniProt P29965 108-261)
CD40 response, luciferase reporter cells, EC50 [2]: 0.113 µg/mL
